# Assay: soluble on expression in E. coli; label from the status in PepcDB or PDB records
row,Sequence,soluble on expression in E. coli
1,MSLIAKVVVDVAAKQTDRIFEYHIPVELEKDIKVGSRVVVPFGPRKIQGFVVGLSEDSEFKGQLKDLLVVVDEMPPLTPELVTLSADLAENIYSYRIKILQAMLPWVMRANYRKLLVPANAQAEKMQFFQGDPIDLNKITDLKDIKKIRKLLRDGDAKIEYVVENKAKKKKENQYELVLESEEYTKIYNTLRQNAVKQKQLLMDIIENEASYPKNQKDFEKKLGLTASVLNTAVKRGWLKRKEVEVYRDPLSGFKDNKKSAPVKLNDEQQFALNQITAAIDKRKAETFLLEGITGSGKTEVYLHAISKALEQGRNALMLVPEISLTPQMVRQVKSRFGQAVAVLHSALSEGEKYDEWRRIRRGETRVVVGARSAVFAPLDNIGLIVIDEEHESSYKQETDPRYNARDVAIWRSKYHHCPLVLGSATPSLGSRARAQKNVYKLLRLTKRANNKKLPKVNLIDLKHVQFAGGQFDLSVNLVDAIKKRLDNKEQVILMLNRRGFANFMLCRECGFVLKCPNCDVSLNLHKDTNSMQCHYCGHTERVPSRCPNCQSSKIRFLGTGTQKVQEELEELLPGARILRMDVDTTRKKGSYKRILDSFGNHEADILLGTQMIAKGLDFPNVTLVGVINADTGLWLSDYNASEKTFELLTQVAGRAGRANKEGEVLIQTYNPEHYAIQLAQTQNYERFYGYEMNVRHAGNYPPYFFTVLISIAAKKEQNAAREAFRIKRYLSQHLHEEMIILGPTPSAISRVKNQYYYQILVKYKKEPNIKELLHHIQDSAQEAKKYGLNVFIDNEPEKIMEGHHHHHH,soluble
2,MGSSHHHHHHSSGLVPRGSHMSLNILGYDVGGTKISTVVGNDSGEILSNVRMPTVKHLGKKRLIEEMITMGDAALKKAHVEKPDLIGIIFAGPVDRNRGVVIASPNIFGLSNFNIVEPIRDYYRTDTFLENDAQAAAIAERLFGSGRNVDNFVYMTLSTGIGGGIFINGKLYRGAHGMAGEIGHNVIMVNGPTCGCGRRGCLEALAGGKAIARRVIENLRAVRDSDFFSKLRPNEITAEKVFEGKKQGDMFSQLILEETIYYLAVGLVNIINTLDPELVIIGGGISKAGKDLFDPLNDAVKEEFKSMYRPFKIVPGLENGSDLAAISVPLYTEMELHGEGEKQY,soluble
3,MGSDKIHHHHHHMIEFAAITSVISKYAPQASQLIIKQAQKNEAVINILHELKLNPTQISDDIDTVYIYALIRYGVFKHEAILNLFREKEIKGCFWDAYSSNTPFKFVENAKKLLNQNSELKMQLINAKINFLAEIEEFGEAFIAVAKQTKSSKYQPYPDWNLDVYSKEFKALIFEKTRLFCGRDFVFKAIQKFFTTQAKGYFSIVGDAGMGKSAIAAKYVLAYKFPCYFNIFAEGRNKPEKFLASIRQQLIKRYSLQNADNTDLRTLLQKASEELKGQKLVIVVDALDEVEQEGNGNLLDLPQNLPNGVYFLLTRRLYNQETKRLTLSPDTPVYELDLTQGDYTALSQEDVKEYIELYLNNDSDLKNWINERHISEDSFTQEIAVKSENNFIYLRYLLPGISEGKYNDLNLKGLPQGLQDYYTTHWNRMGMDKESNEKKVKILYILVERGEPISINMITEILDEEEYEVKSVLNEWVEYVTPKVNVDEHKTYYSIYHRSFLEFLKSQDKLGKGRKLFREVNKSMANYMLKEMA,not soluble
4,MSDLSSSLCQLNWLIAKGGLNTVQEIEVPENPNIVGSPVAPAHEGKRRRIFDGADKPPYSYSQLIRLAIEDTPDKKCTLAEIYSFIAHNFQFYRENRNSSWKNSIRHNLSLNKQFSRIEKTDGDRRGWWVCVDPPAKKPRILKGSPVRVNPIYEHLYHNKQDMPNFTPPPEDPFLSEINGNVHELTEHEIRDLNLFESYDLNSSFRDVYNQIFEKSTSPNGKKQAAQIDWLKISLEAAGLDYHDEQELQEVDTDKLKDYVYNGFPAECDSDVSTPRTDSGRHSSSDSVLSATLQPVNNDSDDEYDWDKLL,not soluble
5,MRNIDFSPLYRHAIGFDRLFNLVENSANKPSQQNGYPPYNIEQKDENNYRITMAVAGFSEDALTISQNEHMLIVSGDITSSEIKPTYVYQGIAERNFERKFQLADYVTVSAASMENGLLHIDLVREVPEAVQARKIAINK,not soluble
6,MGSDKIHHHHHHTEYPLPAAQSRLIGENQYYTVPEGKHTLEDIAAKYQLGLSNLLEANPGVDPFLPKPGSQLLIPLQLILPNAPREGIVINVAEMRLYYYPKGKKTVEVLPIGIGQIGKDTPENWVTSVQRKRANPTWTPTPRIRKEYAAKGEILPAVWPAGPDNPMGLYALYIGNLYAIHGTNASFGIGLRVSQGCVRLRHEDIEHLFKNVPVGTRVQFVNQPIKATEEPDGKRYLAVHQPLSRTVAEFESNEPVAISLPRDIAKFIAKADTNSSVIKKLLDERTGVPMRINQ,not soluble
7,MSEPEEQQPDIHTTAGKLADLRRRIEEATHAGSARAVEKQHAKGKLTARERIDLLLDEGSFVELDEFARHRSTNFGLDANRPYGDGVVTGYGTVDGRPVAVFSQDFTVFGGALGEVYGQKIVKVMDFALKTGCPVVGINDSGGARIQEGVASLGAYGEIFRRNTHASGVIPQISLVVGPCAGGAVYSPAITDFTVMVDQTSHMFITGPDVIKTVTGEDVGFEELGGARTHNSTSGVAHHMAGDEKDAVEYVKQLLSYLPSNNLSEPPAFPEEADLAVTDEDAELDTIVPDSANQPYDMHSVIEHVLDDAEFFETQPLFAPNILTGFGRVEGRPVGIVANQPMQFAGCLDITASEKAARFVRTCDAFNVPVLTFVDVPGFLPGVDQEHDGIIRRGAKLIFAYAEATVPLITVITRKAFGGAYLVMGSKHLGADLNLAWPTAQIAVMGAQGAVNILHRRTIADAGDDAEATRARLIQEYEDALLNPYTAAERGYVDAVIMPSDTRRHIVRGLRQLRTKRESLPPKKHGNIPL,soluble
8,MGSDKIHHHHHHMNAPLSHSRPMMQPSEDKSLATVFPFAGRVLDETPMLLGEGPTFDPASGTAWWFNILERELHELHLASGRKTVHALPFMGSALAKISDSKQLIASDDGLFLRDTATGVLTLHAELESDLPGNRSNDGRMHPSGALWIGTMGRKAETGAGSIYHVAKGKVTKLFADISIPNSICFSPDGTTGYFVDTKVNRLMRVPLDARTGLPTGKAEVFIDSTGIKGGMDGSVCDAEGHIWNARWGEGAVDRYDTDGNHIARYEVPGKQTTCPAFIGPDASRLLVTSAREHLDDDAITANPQHGLTFELGIEVKGRFEPLYRL,soluble
9,GPGSMIMKASGAAVLHAVREKMQEATVAALIVTSSDAHNSEYVATHLQSRAFISHFQGSAGTALITMEKALLWTDGRYWLAAEEEKYPEFDLMKQGQPEVPSLEEWIAANLGSKAVVGMSPYVATVAEWERLSKKINLRPVANIVQDMMPPEKSVRKMYVRPAEFCGATCQERRAAILAELEKKDCDMIILSALDEIAWFTNLRGGDVDYNPVFYAYAVIDKHYENVRLYVNLDKVTDAVRQACEDHIDFYPYEQFEADLKQLPRGRKALVDERQTSEAVFRILKDVGTVTVRVVCGPAQKLKAIKNEVELKGFRDCHVRDGAALTRYLAWLHDQVANKGVTDLNEYDAATKLEEFRAQGEHFVQLSFGSISSIGPNGAMCHYSPAETGSAAIRRDQLYLIDSGAHYWDGTTDVTRTICFTAPSDEQREAYTLVLKGHIALNSIIFPKGTSGVRLDTLARMALWGVGLDYAHGTGHGVGSFLNVHEGPHGISTRPVATGANMELHSIVSNEPGYYKDGHYGIRIENLEEVVECRTKYSATGFYTMSHLTMAPLCRDLIDVSLLTETERAWVDRYHAKVVASIMPHLQQAGDQNAVEYLKYHTRPLFAVNEAYTLLSPDGKGAK,not soluble
10,MSLKPSDFVKYLQRMIALTDTGLTFTKDPFDRERYEDLRSLLSEMLNQVSDLDAEEVAEVLKPTSAYATPLMDVRAWIVEDEKICLVRRQGEDSWALPGGFGEVGYSPTENILKEIEEETGFKAKVERLLAVFDTNRFQLQSKQYAKFVFECKLLDGQFQENQEIAALQFFTIDQLPNLSEKRITKEQIEILWQVYQGQREQYLDEGGSHHHHHH,soluble
11,MCYIEITKDNIEDNHICCALSTKQYEHAVNEKKRWLKARMDEGLVFYRLHERAKVFIEYLPANEAWVPINAPNFMYINCLWVSGRYKNNGHAKRLLDKCIADAKACGMDGIIHIAGKKKLPYLSDKHFFEHMGFTLQDEAAPYFQLMALTWNGLADSPAFKSQVKSDSINEKGITIYYTAQCPFAVGMINDLRELTEKKGVQFQSIQLSSKEEAQKSPAIWTTFSVFFDGRFVTHEIMSINKFEKLLNTLA,not soluble
12,MGSDKIHHHHHHMTTEIRALYTRLPAIDRLLRDPAFSPLLAQHGHSQVVAQLRQMLDEAREQISQRQTLPDWSHDWQHACEQRLTAGQRSALRPVFNLTGTVLHTNLGRAIQAESAVEAVASAMRAPVTLEYDLDDAGRGHRDRAIADLLCQITGAEDACIVNNNAAAVLLMLAATASGREVVVSRGELVEIGGAFRIPDVMRQAGCQLHEVGTTNRTHAKDYRQAVNDNTALLMKVHTSNYSIEGFTKAVDEAELAAIGRELDVPVVADLGSGSLVDLSQYGLPKEPMPQEMIAAGVSLVSFSGDKLLGGPQAGIIVGKRALIAQLQSHPLKRALRADKMTLAALEATLRLYQHPEALREKLPTLRLLTRPAEEIRRLAERLQPDLAAHYADFAVSVAACQSQIGSGSLPVDRLPSAALTFTPHDGRGSRLEALAARWRALPCPVIGRIYDGRLWLDLRCLEDETRFMEMLLR,not soluble
13,SGRPVAELLRKIHTSKALLDMLKRLGKEPLNPGALLSQLKQAVFAVQQSSPLIQEGIKYLEEHLHEVHFGEKVVCHCDVNHNNWLLSEDNQLYLIDWDGAMIADPAMDLGPLLYHYVEKPAWESWLSMYGIELTESLRLRMAWYVLSETITFIAWHKAKGNDKE,not soluble
14,MTLNDKYPFTDEDQAIINSYKAVVDGVSALIGEHCEIVLHSLENIEHSAICIANGHNTNRQVGSPITDLALRSLRNMQSESVSKPYFTRAKGSVLMKSVTIAIRNKTQRIIGLLCININLDVPVSQFLQCFMLTEHTNETSSVNFANSVEDLVAQTIEKTIEEVNADRAVANNTKNRQIVLSLYEKGIFDIKDAINLVAERLDISRHTVYLYIRQIKQEQE,not soluble
15,GSYCPRNLHLLPTTDTYLSKVSDDPDNLEDVDDEELNAHLLNEEASKLKERIWIGLNADFLLEQESKRLKQE,soluble
16,MEEVMALSEPEQNTWINRPEYSEVSEDRIVIVSDANTDFWENTYYDFSHYTGHVYGKETESDFTFQVRVKADFSALYDQAGIFIGGTETAWIKAGIEFNDGQPSIGCVVTNNNSDWSTGLFPGNPGDFWMRVTSKSDVIRIQYSIDGKNWPLLRLCTWPGTRKRFIGVMCCSPKRKGLSAEFTEILLTTPLDSDLHDLSLEHHHHHH,soluble
17,MTGEGYKQAIVVRRDLGMGRGKAAAQAAHASCEAVFLILESGRPEWRRWLEMWRLQGQAKVVLRVESLAELQEVYSKAVEEGLPASFVRDAGKTQLEPGTPTAAAVGPAPSRLVDRITGGLKLF,not soluble
18,VLSARCHIRHIGSPGKDARCAHLSATLRPGIGISPTNVGNATVLADGTPAKPIQGAETMQRARHTGSCFSANARGPAISSGNPSRAGCGVPSSTTTPSSTPQAIRLLACTDSDALTVTRTAR,not soluble
19,LEMKGKRMSVTAVMRELEKEENLYRRSGGGITLSGGEPLAQPEFARELLKACKAKGWHTAIETSGFTTKAVIDEVFPYVDLALTDIKAIDPEIHERNTGVNNRVILENLLRISFLTKVVVRIPVIPGVNDNSQEIHNIAEFARLMQNVDTIHLLPYHSFGENKYNLLGRQYPMGDTKSIEESQMAELKAMVESLGFNCHIGG,not soluble
20,MVHHSTKLPKNGGSEPKLVGAYLVSGSRSRIVDLINMIRELNAPILVFTRYPTFYQDLGENIKVIWITQASEDGIPPTKLHVIQDYAIKFAKENKYAVVIIDCVEYLLLYNEFASVFKFLASLKDYLIMMNSALVLAVDEKALDEKYYTLLLNEFEPLLEHHHHHH,soluble

# Reference: the DeepSol protein solubility set
